Experimental findings from patent publication US20210388110A1 (published 2021) are described below.

Positions count from the first letter of the chain named.

This assay has as its target T1, soluble human CD3ε chain (human, UniProt P07766 23-126, limits assumed).
T1 construct: the text says soluble human CD3ε chain; also called human CD3 epsilon chain
Nature of the assay: SPR (Biacore). A general note: SPR reads the build-up and loss of mass on a sensor chip optically.

T1 sequence (P07766 23-126 limits assumed): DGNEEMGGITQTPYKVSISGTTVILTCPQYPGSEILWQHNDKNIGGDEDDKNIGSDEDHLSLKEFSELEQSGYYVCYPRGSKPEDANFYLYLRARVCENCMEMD

B1: TR01H040-E22Hh/none-Hi-Kn010G3/TR01L011-k0 (antibody, human IgG1, kappa, L234A L235A, N297A)
heavy: QVQLVESGGGLVQPGRSLRLSCAASGFTFSNAWMHWVRQAPGKGLEWVAQIKDKSQNYATYYAESVKGRFTISRADSKNSIYLQMNSLKTEDTAVYYCRYVHYSASYGVDAWGQGTTVTVSSASTKGPSVFPLAPSSKSTSGGTAALGCLVKDYFPEPVTVSWNSGALTSGVHTFPAVLQSSGLYSLSSVVTVPSSSLGTQTYICNVNHKPSNTKVDKKVEPKSCDKTHTCPPCPAPEAAGGPSVFLFPPKPKDTLMISRTPEVTCVVVDVSHEDPEVKFNWYVDGVEVHNAKTKPREEQYASTYRVVSVLTVLHQDWLNGKEYKCKVSNKALPAPIEKTISKAKGQPREPQVYTLPPSRCELTKNQVSLSCAVKGFYPSDIAVEWESNGQPENNYKTTPPVLDSDGSFFLVSKLTVDKSRWQQGNVFSCSVMHEALHNHYTQKSLSLSPDYKDDDDK
chain: EPKSSDKTHTCPPCPAPELLGGPSVFLFPPKPKDTLMISRTPEVTCVVVDVSHEDPEVKFNWYVDGVEVHNAKTKPREEQYNSTYRVVSVLTVLHQDWLNGKEYKCKVSNKALPAPIEKTISKAKGQPREPQVCTLPPSRDELTKNQVSLWCLVKGFYPSDIAVEWESNGQPENNYKTTPPVLDSDGSFFLYSKLTVDKSRWQQGNVFSCSVMHEALHNRYTQKSLSLSP
light: DIVMTQSPLSLPVTPGEPASISCQASESLVHSNRNTYLHWYQQKPGQAPRLLIYKVSNRFRGVPDRFSGSGSGTDFTLKISRVEAEDVGVYYCGQGTQVPYTFGQGTKVEIERTVAAPSVFIFPPSDEQLKSGTASVVCLLNNFYPREAKVQWKVDNALQSGNSQESVTEQDSKDSTYSLSSTLTLSKADYEKHKVYACEVTHQGLSSPVTKSFNRGEC
notes: single-arm
The term Kd denotes the free concentration of one partner at which half of the binding sites on the other are occupied at equilibrium, for simple one-to-one binding. Lower therefore signals a tighter complex. B1 showed a Kd of 35.7 nM.

B2: TR01H061-E22Hh/none-Hi-Kn010G3/L0200-k0 (antibody, human IgG1, kappa, L234A L235A, N297A)
heavy: B1 heavy with S104A, A111I
chain: B1 chain
light: B1 light with Q24R, A25P, E27Q, L29P, R61S, V109L, E112K
notes: single-arm
Molecule B2 returned a Kd of 12.7 nM.

B3: TR01H043-E22Hh/none-Hi-Kn010G3/L0000-k0 (antibody, human IgG1, kappa, L234A L235A, N297A)
heavy: B1 heavy with A23S, Q56N, A111I
chain: B1 chain
light: B1 light with Q24R, A25S, E27Q, R61S, V109L, E112K
notes: single-arm
For B3, the Kd came to 15.2 nM.

B4: TR01H049-E22Hh/none-Hi-Kn010G3/L0000-k0 (antibody, human IgG1, kappa, L234A L235A, N297A)
heavy: B1 heavy with A75D
chain: B1 chain
light: B1 light with Q24R, A25S, E27Q, R61S, V109L, E112K
notes: single-arm
The molecule B4 registered a Kd of 67.9 nM.

B5: TR01H047-E22Hh/none-Hi-Kn010G3/L0000-k0 (antibody, human IgG1, kappa, L234A L235A, N297A)
heavy: B1 heavy with Q56N, A75D, A111I
chain: B1 chain
light: B1 light with Q24R, A25S, E27Q, R61S, V109L, E112K
notes: single-arm
With B5, binding was put at a Kd of 20.4 nM.

B6: TR01H040-E22Hh/none-Hi-Kn010G3/TR01L016-k0 (antibody, human IgG1, kappa, L234A L235A, N297A)
heavy: B1 heavy
chain: B1 chain
light: DIVMTQSPLSLPVTPGEPASISCRSSQSPVHSNRNTYLHWYLQKPGQSPQLLIYKVSNRFSGVPDRFSGSGSGTDFTLKISRVEAEDVGVYYCYQGTQVPYTFGQGTKLEIKRTVAAPSVFIFPPSDEQLKSGTASVVCLLNNFYPREAKVQWKVDNALQSGNSQESVTEQDSKDSTYSLSSTLTLSKADYEKHKVYACEVTHQGLSSPVTKSFNRGEC
notes: single-arm
As for B6, the Kd worked out at 2.52 nM.

B7: TR01H042-E22Hh/none-Hi-Kn010G3/L0000-k0 (antibody, human IgG1, kappa, L234A L235A, N297A)
heavy: B1 heavy with L11V, R16G
chain: B1 chain
light: B6 light with P29L, L42Q, S48A, Q50R, Y94G
notes: single-arm
As for B7, the affinity, expressed as Kd, was 44.8 nM.

B8: TR01H045-E22Hh/none-Hi-Kn010G3/L0000-k0 (antibody, human IgG1, kappa, L234A L235A, N297A)
heavy: B1 heavy with A23S
chain: B1 chain
light: B6 light with P29L, L42Q, S48A, Q50R, Y94G
notes: single-arm
Turning to B8, the Kd came to 52.2 nM.

B9: TR01H046-E22Hh/none-Hi-Kn010G3/L0000-k0 (antibody, human IgG1, kappa, L234A L235A, N297A)
heavy: B1 heavy with A23S, A111Y
chain: B1 chain
light: B6 light with P29L, L42Q, S48A, Q50R, Y94G
notes: single-arm
The molecule B9 registered a Kd of 42.3 nM.

B10: TR01H040-E22Hh/none-Hi-Kn010G3/TR01L013-k0 (antibody, human IgG1, kappa, L234A L235A, N297A)
heavy: B1 heavy
chain: B1 chain
light: B1 light with Q42L, A48S, R50Q
notes: single-arm
The molecule B10 came in with a Kd of 41.5 nM.

B11: TR01H048-E22Hh/none-Hi-Kn010G3/L0000-k0 (antibody, human IgG1, kappa, L234A L235A, N297A)
heavy: B1 heavy with A75D, A111I
chain: B1 chain
light: B6 light with P29L, L42Q, S48A, Q50R, Y94G
notes: single-arm
Turning to B11, the affinity, expressed as Kd, was 45.2 nM.

B12: TR01H051-E22Hh/none-Hi-Kn010G3/L0000-k0 (antibody, human IgG1, kappa, L234A L235A, N297A)
heavy: B1 heavy with Q56N, I81L, A111I
chain: B1 chain
light: B6 light with P29L, L42Q, S48A, Q50R, Y94G
notes: single-arm
With B12, the Kd was determined as 29.1 nM.

B13: TR01H061-E22Hh/none-Hi-Kn010G3/L0215-k0 (antibody, human IgG1, kappa, L234A L235A, N297A)
heavy: B1 heavy with S104A, A111I
chain: B1 chain
light: B6 light with S28P, L38I, L42Q, S48A, Q50R, Y94G
notes: single-arm
B13: the Kd worked out at 15.4 nM.

B14: TR01H040-E22Hh/none-Hi-Kn010G3/TR01L018-k0 (antibody, human IgG1, kappa, L234A L235A, N297A)
heavy: B1 heavy
chain: B1 chain
light: B6 light with R24Q, S25A, Q27E, Y94G
notes: single-arm
As for B14, binding was characterised by a dissociation constant (Kd) of 45.1 nM.

B15: TR01H040-E22Hh/none-Hi-Kn010G3/TR01L012-k0 (antibody, human IgG1, kappa, L234A L235A, N297A)
heavy: B1 heavy
chain: B1 chain
light: B6 light with P29L, S61R, Y94G, L109V, K112E
notes: single-arm
B15 returned a Kd of 42.2 nM.

B16: TR01H052-E22Hh/none-Hi-Kn010G3/L0000-k0 (antibody, human IgG1, kappa, L234A L235A, N297A)
heavy: B1 heavy with I81L, A111I
chain: B1 chain
light: B6 light with P29L, L42Q, S48A, Q50R, Y94G
notes: single-arm
Molecule B16 showed a Kd of 62.7 nM.

B17: TR01H041-E22Hh/none-Hi-Kn010G3/L0000-k0 (antibody, human IgG1, kappa, L234A L235A, N297A)
heavy: B1 heavy with A111Y
chain: B1 chain
light: B6 light with P29L, L42Q, S48A, Q50R, Y94G
notes: single-arm
Take B17: the Kd turned out to be 31.6 nM.

B18: TR01H061-E22Hh/none-Hi-Kn010G3/L0000-k0 (antibody, human IgG1, kappa, L234A L235A, N297A)
heavy: B1 heavy with S104A, A111I
chain: B1 chain
light: B6 light with P29L, L42Q, S48A, Q50R, Y94G
notes: single-arm
As to B18, binding was put at a Kd of 17.1 nM.

B19: TR01H044-E22Hh/none-Hi-Kn010G3/L0000-k0 (antibody, human IgG1, kappa, L234A L235A, N297A)
heavy: B1 heavy with A23S, A111I
chain: B1 chain
light: B6 light with P29L, L42Q, S48A, Q50R, Y94G
notes: single-arm
As to B19, the Kd amounted to 35.2 nM.

B20: TR01H040-E22Hh/none-Hi-Kn010G3/TR01L015-k0 (antibody, human IgG1, kappa, L234A L235A, N297A)
heavy: B1 heavy
chain: B1 chain
light: B6 light with Y94G
notes: single-arm
Consider B20, for which the Kd was 39.5 nM.

B21: TR01H050-E22Hh/none-Hi-Kn010G3/L0000-k0 (antibody, human IgG1, kappa, L234A L235A, N297A)
heavy: B1 heavy with A75D, A111Y
chain: B1 chain
light: B6 light with P29L, L42Q, S48A, Q50R, Y94G
notes: single-arm
As for B21, the Kd came out at 57.6 nM.

B22: TR01H040-E22Hh/none-Hi-Kn010G3/TR01L019-k0 (antibody, human IgG1, kappa, L234A L235A, N297A)
heavy: B1 heavy
chain: B1 chain
light: B6 light with R24Q, S25A, Q27E
notes: single-arm
The molecule B22 yielded a Kd of 3.2 nM.

B23: TR01H055-E22Hh/none-Hi-Kn010G3/L0000-k0 (antibody, human IgG1, kappa, L234A L235A, N297A)
heavy: B1 heavy with Q56N, A75D, I81L, A111I
chain: B1 chain
light: B6 light with P29L, L42Q, S48A, Q50R, Y94G
notes: single-arm
In turn, B23 displayed a Kd of 38.8 nM.
